Measurements reported in paper PMC4117764.

Biological target: GST-tagged p21C-terminal peptide
Assay: pull-down

In the case of “proliferating cell nuclear antigen (PCNA), endogenous (from UniProt P12004 1-261) (natural protein)”, the extent of PCNA depletion is reported as greater than 95%.
